The values below come from patent publication EP4703388A1.

The target in test [1] is human tissue factor (TF) on MDA-MB-231, NCI-H358 and HCT116 cells (human) (UniProt P13726). Description: cell-based or functional assay.
The target in test [2] is HuRatTF, human-rat hybrid TF antigen (human-rat hybrid). Nature of the test: ELISA, HuRatTF coated, antibody titrated. A general note: ELISA stands for enzyme-linked immunosorbent assay.
Chain of HuRatTF, human-rat hybrid TF antigen (human-rat hybrid) (chain, as listed by the source limits assumed): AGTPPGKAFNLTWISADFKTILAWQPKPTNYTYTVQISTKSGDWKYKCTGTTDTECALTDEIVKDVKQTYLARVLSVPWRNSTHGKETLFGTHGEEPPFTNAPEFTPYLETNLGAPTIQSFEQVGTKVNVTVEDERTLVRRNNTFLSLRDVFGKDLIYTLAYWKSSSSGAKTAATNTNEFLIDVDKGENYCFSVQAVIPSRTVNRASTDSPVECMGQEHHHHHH

Chain of human tissue factor (TF) on MDA-MB-231, NCI-H358 and HCT116 cells (human) (P13726 33-295): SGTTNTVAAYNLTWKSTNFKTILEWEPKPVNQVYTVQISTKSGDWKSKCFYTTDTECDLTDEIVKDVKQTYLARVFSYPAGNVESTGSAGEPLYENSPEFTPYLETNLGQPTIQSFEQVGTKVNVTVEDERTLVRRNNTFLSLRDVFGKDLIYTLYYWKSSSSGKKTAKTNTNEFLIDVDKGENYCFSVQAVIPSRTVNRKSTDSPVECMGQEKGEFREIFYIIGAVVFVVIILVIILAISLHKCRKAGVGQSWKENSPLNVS

As for “TF011 (monoclonal antibody sequence of tisotumab vedotin)”, the Inhibition rate (%), Factor-VII-Human Chromogenic-Activity blood coagulation pathway assay (FVIIa, MDA-MB-231 cells, FX; antibody 20 µg/mL) in test [1] is 92.8%. The same substance showed a Maximum (OD450 nm) in test [2] of 0.0585 OD450 nm.
